Values quoted from earlier work, collected in US7776558B2, “Human G protein-coupled receptor and modulators thereof for the treatment of cell death-related disorders” (Arena Pharmaceuticals, Inc., priority 2003, dated 2010).

Key:
FPRL2 = biological target: T1, FPRL2 (Homo sapiens, UniProt P25089); conditions: cited from earlier work
T1 sequence (P25089 1-353): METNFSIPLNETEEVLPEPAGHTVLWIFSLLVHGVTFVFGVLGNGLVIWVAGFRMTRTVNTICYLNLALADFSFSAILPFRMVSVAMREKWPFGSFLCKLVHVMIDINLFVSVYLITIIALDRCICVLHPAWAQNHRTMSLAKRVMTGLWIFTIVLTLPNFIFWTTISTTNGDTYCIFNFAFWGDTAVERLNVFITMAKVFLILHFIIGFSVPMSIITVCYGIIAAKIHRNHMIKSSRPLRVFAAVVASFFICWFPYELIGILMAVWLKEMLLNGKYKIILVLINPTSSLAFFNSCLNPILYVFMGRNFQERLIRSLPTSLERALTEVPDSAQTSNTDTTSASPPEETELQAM

[1] = biological target: T2, FPRL2 on mature human dendritic cells (Homo sapiens, UniProt P25089); conditions: Yang et al. 2002; cited from earlier work
T2 construct: host or cells: mature human dendritic cells
T2 sequence (P25089 1-353): T1 sequence (P25089 1-353)

Row | Compound | Ligand status at FPRL2 (FPRL2) | Binding to FPRL2 [1] | Intracellular Ca2+ [1]
1 | CCCCC[C@H](O)/C=C/C=C\C=C\C=C\[C@@H](O)[C@@H](O)CCCC(=O)O [lipoxin A4] | shown not to be ligands for FPRL2 | – | –
2 | WKYMVm | – | bind to FPRL2 on mature human dendritic cells | elicit an increase in intracellular Ca^2+
